{"source": "paper PMC6662615", "about": "(Biochemistry, 2019)", "proteins": {"B1": {"name": "recombinant human αB-crystallin (natural protein, UniProt P02511 1-175, looked up)", "chain": "MDIAIHHPWIRRPFFPFHSPSRLFDQFFGEHLLESDLFPTSTSLSPFYLRPPSFLRAPSWFDTGLSEMRLEKDRFSVNLDVKHFSPEELKVKVLGDVIEVHGKHEERQDEHGFISREFHRKYRIPADVDPLTITSSLSSDGVLTVNGPRKQVSGPERTIPITREEKPAVTAAPKK"}}, "biological_target": "the molecule itself", "assay": "dynamic light scattering"}
{"protein": "B1", "values": [{"measurement": "binding result", "result": "binds"}]}
